We go through one molecule from article PMC8844856, “Structural basis of cyclic oligoadenylate binding to the transcription factor Csa3 outlines cross talk between type III and type I CRISPR systems” (The Journal of Biological Chemistry, 2022).

Holding throughout (conditions): protein: recombinant; tags: N-terminal His6; chain copies: 2; cyclic; no ends
One series addresses T1, Csa3Sso E122A (Saccharolobus solfataricus P2, UniProt Q97Y88 1-237, E122A).
T1 sequence: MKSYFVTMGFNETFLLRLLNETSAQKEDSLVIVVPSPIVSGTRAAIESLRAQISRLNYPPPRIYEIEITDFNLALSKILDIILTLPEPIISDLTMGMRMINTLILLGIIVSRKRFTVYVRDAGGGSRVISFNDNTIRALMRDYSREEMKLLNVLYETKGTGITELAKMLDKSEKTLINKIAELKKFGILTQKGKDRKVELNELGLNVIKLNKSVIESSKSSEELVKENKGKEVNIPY
Kind of series: MST; MST buffer not given in the material; Cy5 EMSA: 50 nM probe, 0.5-25 uM protein, 5% acrylamide TBE, 4 C; agarose EMSA: 2% TBE, room temperature; crystals: 20 mM. In general terms: Mobility shift assays separate free from complexed probe on a gel.

The target in another series is T2, Csa3Sso E122Q (Saccharolobus solfataricus P2, UniProt Q97Y88 1-237, E122Q).
T2 sequence: T1 sequence with A122Q
The series is described as above.

The target in another series is T3, Csa3Sso R98A (Saccharolobus solfataricus P2, UniProt Q97Y88 1-237, R98A).
T3 sequence: T1 sequence with R98A, A122E
In words: MST; nonspecific signal at high cA4 only; MST buffer not given in the material; Cy5 EMSA: 50 nM probe, 0.5-25 uM protein, 5% acrylamide TBE, 4 C; agarose EMSA: 2% TBE, room temperature; crystals: 20 mM.

In a further series the target is T4, Csa3Sso F10A (Saccharolobus solfataricus P2, UniProt Q97Y88 1-237, F10A).
T4 sequence: T1 sequence with F10A, A122E
The series is described as above.

In the next series the target is T5, Csa3Sso F14A (Saccharolobus solfataricus P2, UniProt Q97Y88 1-237, F14A).
T5 sequence: T1 sequence with F14A, A122E
The series is described as above.

The target of the next series is T6, Csa3Sso G96A (Saccharolobus solfataricus P2, UniProt Q97Y88 1-237, G96A).
T6 sequence: T1 sequence with G96A, A122E
The description is as above.

Substitutions are numbered along the chain they refer to.

As a reminder, the Kd is the concentration at which binding is half-saturated. As to AAAA (ssRNA, cyclic, 3'-5' linked tetra-adenylate (CHEBI:142457)) [cA4], the Kd with Csa3Sso E122A was 38.3 nM; in the series with Csa3Sso E122Q, 44.5 nM. Also, the binding result in the series with Csa3Sso R98A, with Csa3Sso F10A, in the series with Csa3Sso F14A and with Csa3Sso G96A was “no binding” throughout.
